Substitutions are numbered along the chain they refer to. Names may count otherwise. “And” between values parts separate entries of the source, which are not always exact repeats. Equal values may be shown once.

By koff is commonly meant the rate constant with which the complex falls apart. What is called kon is the second-order rate constant of association. Lower therefore signals slow association. Usually EC50 stands for the concentration that produces a half-maximal response. By Kd is commonly meant the constant that tells how readily two partners part at equilibrium. What is called EC50 (read off the curve) is the concentration needed to bring the measured effect to its halfway point.

Assay [1] has as its target T1, human gamma-synuclein (human, UniProt O76070 1-127, limits assumed).
T1 construct: bought
Description: ELISA, human gamma-synuclein coated at 100 ng/ml.
Description: (§1) For the positive control, RP-bound goat anti-rabbit was used as a detection antibody.

In assay [2] the target is human alpha-synuclein monomer (human, UniProt P37840 1-140). Description: SPR (BIAcore), antibody captured on Protein A chip, alpha-Syn monomer as analyte, 1:1 binding fit to a flat sensorgram, 25 C.
The target in assay [3] is T2, Tau protein aggregates (UniProt P10636-8 1-441, limits assumed).
T2 construct: aggregates prepared by Prof; Seung-jae Lee; also called tau-derived aggregates
T2 sequence (P10636 other isoform, or with tags, fused parts or gaps limits assumed): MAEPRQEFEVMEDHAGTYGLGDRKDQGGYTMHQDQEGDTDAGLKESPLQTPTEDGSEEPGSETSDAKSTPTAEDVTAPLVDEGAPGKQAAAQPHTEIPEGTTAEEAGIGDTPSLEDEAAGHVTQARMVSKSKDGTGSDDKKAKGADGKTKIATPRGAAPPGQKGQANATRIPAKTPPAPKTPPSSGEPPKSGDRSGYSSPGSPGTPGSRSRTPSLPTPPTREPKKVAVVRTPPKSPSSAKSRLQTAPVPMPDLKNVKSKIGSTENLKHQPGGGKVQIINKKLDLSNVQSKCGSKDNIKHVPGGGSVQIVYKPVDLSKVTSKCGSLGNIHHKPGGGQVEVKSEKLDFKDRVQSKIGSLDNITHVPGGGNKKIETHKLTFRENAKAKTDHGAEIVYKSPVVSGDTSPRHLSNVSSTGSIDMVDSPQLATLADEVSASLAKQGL
Description: dot blot.

In assay [4] the target is T3, Aβ42 (Monomer) (human, UniProt P05067).
T3 construct: recombinant, monomer (not aggregated); m20 is the aggregated form; also called amyloid beta1-42 monomer
Description: dot blot, monomer and fibril of each protein spotted in rising amounts, antibody as probe.
Description: (§2) The specific binding ability of the antibodies to the alpha-synuclein aggregate was analyzed by reacting with a blot.

The target of assay [5] is T4, amyloid beta1-42 aggregates (UniProt P05067 672-713).
T4 construct: domain: amyloid beta1-42; aggregates prepared by Prof; Seung-jae Lee; also called amyloid beta1-42-derived aggregates
The description is as above.
Description: as §2

For assay [6], the target named is T5, human beta-synuclein (human, UniProt Q16143 1-134, limits assumed).
T5 construct: bought
T5 sequence (Q16143 whole entry): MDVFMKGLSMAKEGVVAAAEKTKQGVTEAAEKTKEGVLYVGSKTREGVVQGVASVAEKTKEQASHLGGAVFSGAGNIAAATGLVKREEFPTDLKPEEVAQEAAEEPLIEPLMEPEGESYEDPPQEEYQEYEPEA
The assay is described as follows: ELISA, human beta-synuclein coated at 100 ng/ml. A general note: ELISA stands for enzyme-linked immunosorbent assay.
Description: as §1

Assay [7] deals with T6, human alpha-synuclein aggregates (fibrils) (human, UniProt P37840 1-140). The assay is described as follows: SPR (BIAcore), antibody captured on Protein A chip, alpha-Syn fibril as analyte, 1:1 binding fit, 25 C. On the technique in general: In SPR one partner is held on a chip, and binding of the other changes the refractive index at the surface.
The target in assay [8] is T6, human alpha-synuclein aggregates …. The assay is described as follows: sandwich ELISA, antibody coated at 1 ug/ml, alpha-synuclein fibril aggregates titrated.
Description: ELISA analysis was performed to quantitatively analyze the binding affinity of the antibody of the present invention to the antigen. […] After washing with PBS, streptavidin conjugated with HRP and secondary antibody conjugate with biotin was treated and then reacted with TMB as a substrate.
Assay [9] shares this target. Description: Octet (BLI), fibrils; table of results. A general note: Biolayer interferometry detects binding as a change in optical thickness at a sensor tip.
Description: The target concentrations were 20 μg/ml for the monomer and 0.4 μg/ml for the fibril. The kinetics concentration was diluted sequentially two times from 50 nM for monomers and from 100 nM for fibrils, to give 7 points in total, respectively. Association/dissociation time was 5 min/20 min for monomer and 5 min/25 min for fibril. Biosensor was ARG2 and fitting was performed using 1:1 fitting model.
The target is the same in assay [10]. The assay is described as follows: SPR (BIAcore), fibrils; table of results.
Description: (§3) The running buffer, analyte dilution, and the sample dilution buffer were HBS-EP. […] For the capture, the monomer was for RU of 800 (theoretical), and a fibril was for RU of 100 (theoretical). The capture phase was performed at contact time of 60 seconds, a flow rate of 30 μl/min, and a stabilization period of 180 seconds. The association phase was performed at the association time of 120 seconds and the flow rate was 30 μl/min. The dissociation phase was performed at the dissociation time of 360 seconds and the flow rate of 30 l/min. The regeneration phase was performed twice time at the regeneration time of 240 seconds (primary) and 60 seconds (secondary) and a flow rate of 30 μl/min. The fitting was carried out suing 1:1 binding model, and the evaluation software was BIACore T200 Evaluation software (GE healthcare).
Assay [11] concerns the target T7, human IGF1R extracellular domain, His-tagged (human, UniProt P08069 31-932).
T7 construct: Bought (R&D Systems 391-GR or Sino Biological 10164-H08H); also called recombinant IGF1R; ECD of IGF1R
The assay is described as follows: ELISA on IGF1R protein, second experiment.

For assay [12], the target named is T7, human IGF1R extracellular domain, …. Description: ELISA on IGF1R protein, third experiment.
For assay [13] the target is unchanged. Description: ELISA on IGF1R protein, first experiment.
Assay [14] deals with T6, human alpha-synuclein aggregates …. Description: SPR (BIAcore), antibody captured on Protein A chip, alpha-synuclein fibril (sample aSyn180330) as analyte, 1:1 binding fit, 25 C.
Description: as §3
For assay [15] the target is unchanged. The assay is described as follows: sandwich ELISA, antibody coated in a dilution series, synuclein fibril aggregates at 2000 ng/ml; C of the 4-P fit, which paragraph 260 calls EC50.
Description: Specifically, each antibody was diluted at 1/10 ratio of concentrations 0.04 to 400 nM and was coated on a 96-well plate, and then each well was treated with synuclein fibril aggregates were treated at 2000 ng/ml. After washing with 1×PBS, streptavidin conjugated with HRP and secondary antibody conjugate with biotin was treated and then reacted with TMB as a substrate. The absorbance was measured.
Assay [16] shares this target. The assay is described as follows: BIAcore as in Example 4-3, α-syn aggregates.
Description: as §3
For assay [17], the target named is T7, human IGF1R extracellular domain, …. The assay is described as follows: ELISA, hIGF1R coated, minibody titrated 0.000256-20 nM, Abs. at 450 nm.
Description: Human IGF1R was diluted with 1 ug/ml in PBS buffer, added at an amount of 100 ul per well in 96-well ELISA plate (Nunc-Immuno Plates, NUNC, Rochester, NY), coated by reacting at 4° C. for 16 hours, and then the supernatant was removed. PBS buffer containing 3% BSA (bovine serum albumin) was added to 200 ul per well and reacted for 2 hours to block non-specific binding.
After treatment, it was wash 4 times with PBS buffer containing 0.05% Tween20, and was reacted at room temperature for an hour by adding 100 ul of the anti-human HRP recognizing human Fe of the minibody diluted in blocking buffer at 1:5000 per each well. After washing 4 times with 300 ul of PBS-T (Tween20 0.05%), the color development was performed using TMB (Tetramethylbenzidine, Sigma, T0440).

T1 sequence (O76070 whole entry): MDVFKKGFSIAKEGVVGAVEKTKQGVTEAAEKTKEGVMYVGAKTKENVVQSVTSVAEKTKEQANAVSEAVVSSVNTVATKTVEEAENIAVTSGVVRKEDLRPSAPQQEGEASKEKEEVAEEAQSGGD

B1: chimeric 9B11 antibody (antibody, V domains shown)
VH: EVQLQESGGGLVQPKGSLKLSCAASGFTFNTYAMNWVRQAPGKGLEWVARIRSKSNNYATYYADSVKDRFTISRDDSQSMLYLQMNNLKTEDTAMYYCVRQDFDYWGQGTTLTVSS
VL: DIVMTQSPLSLPVSLGDQASISCRSSQSLVHSNGNTYLHWYLQKPGQSPKLLIYKVSNRFSGVPDRFSGSGSGTDFTLKISRVEAEDLGVYFCSQSTHVPLTFGAGTKLEQK
notes: also called ch9B11; 9B11 (chimeric)
As to B1, the binding result in assay [1], in [3], in assay [4], in assay [5] and in [6] was “no binding” each time. Further, the koff in [2] came out at 0.000571 s⁻¹; in assay [7], 4.39e-05 s⁻¹. Also, the kon in [2] stood at 2210 M⁻¹ s⁻¹; in assay [7] it was 629000 M⁻¹ s⁻¹.

B2: 9B11 (mouse monoclonal anti-alpha-synuclein antibody) (antibody, V domains shown)
VH: B1 VH
VL: B1 VL
For B2, the half-maximal effective concentration (EC50) in [8] was 0.185 µg/mL and 1.23 nM. The figures for the Kd in assay [9] and in assay [10] were 0.018 nM and 0.904 nM, respectively.

B3: 1564 clone (anti-IGF1R antibody, format not stated) (antibody, V domains shown)
VH: EVQLLESGGGLVQPGGSLRLSCAASGFTFSSYDMSWVRQAPGKGLEWVSAISYDNGNTYYADSVKGRFTISRDNSKNTLYLQMNSLRAEDTAVYYCAKGVLTTLMNWFDYWGQGTLVTVSS
VL: QSVLTQPPSASGTPGQRVTISCTGSSSNIGSNDVSWYQQLPGTAPKLLIYANSNRPSGVPDRFSGSKSGTSASLAISGLRSEDEADYYCGAWDDSLNGYVFGGGTKLTVL
For B3, the results for the EC50 in [11], in [12] and in assay [13] were 2.66 nM, 6.87 nM and 2.15 nM, respectively. For the same molecule, the Saturation value came to 0.977 in assay [11] and 1.1 in assay [13].

B4: 1564-VL(N95aH) (antibody, V domains shown)
VH: B3 VH
VL: B3 VL with P60S, N97H
In assay [13], B4 displayed an EC50 of 2.63 nM and a Saturation value of 1.08.

B5: 1564-VL(N95aK) (antibody, V domains shown)
VH: B3 VH
VL: B3 VL with P60S, N97K
B5: in [13], a half-maximal effect (EC50) was put at 2.07 nM and the Saturation value was found to be 1.18.

B6: 1564-VL(N95aD) (antibody, V domains shown)
VH: B3 VH
VL: B3 VL with P60S, N97D
As for B6, in assay [11], a half-maximal response (EC50) required 2.07 nM and the Saturation value amounted to 0.896.

B7: 1564-VH(N54Q) (antibody, V domains shown)
VH: B3 VH with N55Q
VL: B3 VL
In assay [11], B7 registered an EC50 of 2.2 nM and a Saturation value of 0.885.

B8: 1564-VH(N54D) (antibody, V domains shown)
VH: B3 VH with N55D
VL: B3 VL
In [11], B8 returned an EC50 of 2.89 nM and a Saturation value of 0.933.

B9: 1564-VL(N51D) (antibody, V domains shown)
VH: B3 VH
VL: B3 VL with N52D, P60S
With B9, in assay [12], the EC50 worked out at 7.35 nM.

B10: chimeric 3A9 antibody (antibody, V domains shown)
VH: EVQLQESGGGLVKPGGSLKLSCAASGFTFSSYAMSWVRQTPEKRLEWVATISNGGGYTYYPDSVKGRFTISRDNAKNTLYLQMSSLRSEDTAMYYCARHITTVRPTKYFDYWGQGTTLTVSS
VL: DIVMTQSPKFMSTSVGDRVSITCKASQNVGTTVAWYQQKPGQSPKLLIYSASNRYTGVPDRFTGSGSGTDFTLTISNMQSEDLADYFCQQYSNYPLTFGAGTKLELR
notes: also called Ch 3A9; ch3A9
Take B10: the binding result in assay [1], in [3], in assay [4], in assay [5] and in assay [6] was “no binding” throughout. Also, the koff is 0.00186 s⁻¹ in assay [2] and 7.42e-05 s⁻¹ in assay [7]. For the same molecule, the kon in assay [7] was found to be 631000 M⁻¹ s⁻¹.

B11: 3A9 (mouse monoclonal anti-alpha-synuclein antibody) (antibody, mouse IgG2b, V domains shown)
VH: B10 VH
VL: B10 VL
As for B11, the EC50 in [8] was 0.319 µg/mL and 2.13 nM. The Kd is 0.13 nM in assay [9] and 1.32 nM in assay [10].

B12: 11F11 (mouse monoclonal anti-alpha-synuclein antibody) (antibody, mouse IgG2b, V domains shown)
VH: EVQLQESGGGLVQPGGSLRLSCATSGFTFSDFYMEWVRQPPGKRLEWIAASRNKANDYTTEYSASVKGRFIVSRDTSQSILYLQMNALRAEDTAIYYCARDAHGKPFAYWGQGTLVTVSA
VL: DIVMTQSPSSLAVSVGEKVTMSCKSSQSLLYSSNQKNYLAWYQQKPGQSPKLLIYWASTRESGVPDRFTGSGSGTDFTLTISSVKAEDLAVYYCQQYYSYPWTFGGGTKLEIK
As for B12, the EC50 in assay [8] is 0.327 µg/mL and 2.18 nM. The dissociation constant (Kd) in assay [9] is 0.16 nM; in assay [10], 2.87 nM.

B13: hu11F11(ver.1) (antibody, human IgG1, kappa, V domains shown)
VH: B12 VH with Q5V, I71T, V72I, T76D, Q78K, I80S, A87S, L115T, A120S
VL: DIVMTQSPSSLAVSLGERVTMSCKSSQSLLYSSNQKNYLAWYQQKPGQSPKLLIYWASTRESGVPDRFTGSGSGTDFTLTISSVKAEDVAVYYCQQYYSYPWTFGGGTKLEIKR
notes: humanized IgG1; also called Hu11F11-VH-v1 + Hu11F11-VLv3 4c
In assay [14], B13 registered a koff of 5.36e-05 s⁻¹ and a kon of 845000 M⁻¹ s⁻¹. The molecule further came in with an EC50 in [15] of 11.5 nM.

B14: hu11F11(ver.4) (antibody, human IgG1, kappa, V domains shown)
VH: B12 VH with Q5V, I71T, Q78K, I80S, A87S, L115T, A120S
VL: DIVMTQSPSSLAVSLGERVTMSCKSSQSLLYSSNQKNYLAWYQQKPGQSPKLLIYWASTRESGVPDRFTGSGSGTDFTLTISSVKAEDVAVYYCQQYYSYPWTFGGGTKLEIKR
notes: humanized IgG1; also called Hu11F11-VH-v4 + Hu11F11-VLv3 4c
In assay [14], B14 showed a koff of 0.000291 s⁻¹ and a kon of 1.07e+06 M⁻¹ s⁻¹. The same molecule gave a Kd in [16] of 0.0204 nM. Moreover, the EC50 in assay [15] was found to be 12.9 nM.

B15: hu11F11(ver.3) (antibody, human IgG1, kappa, V domains shown)
VH: B12 VH with Q5V, I71T, V72I, Q78K, I80S, A87S, L115T, A120S
VL: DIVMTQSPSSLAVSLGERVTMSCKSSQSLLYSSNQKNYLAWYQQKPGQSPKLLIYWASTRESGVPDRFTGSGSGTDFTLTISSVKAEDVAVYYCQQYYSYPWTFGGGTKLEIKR
notes: humanized IgG1; also called Hu11F11-VH-v3 + Hu11F11-VLv3 4c
The molecule B15 had a kon in assay [14] of 1.07e+06 M⁻¹ s⁻¹. For the same molecule, the Kd in [16] came to 0.0316 nM. The response in assay [15] was half-maximal at 13.4 nM (EC50).

B16: 996 minibody (Fc fusion, not shown: a dimerising Fc or GST)
chain: QSVLTQPPSASGTPGQRVTISCTGSSSNIGSNAVNWYQQLPGTAPKLLIYSNSHRPSGVPDRFSGSKSGTSASLAISGLRSEDEADYYCATWDYSLSGYVFGCGTKLTVLGGGGSGGGGSGGGGSGGGGSEVQLLESGGGLVQTGGSLRLSCAASGFTFSSYDMSWVRQAPGKCLEWVSGIYHDGSSTYYADSVQGRFTISRDNSKNTLYLQMNSLRAEDTAVYYCARVSGTLSEPYAFFFNAMDVWGQGTLVTVSS
Take B16: in assay [17], the “EC50 (read off the curve)” value was approximately 0.3 nM.

Values taken from patent publication US20240101687A1 (ABL BIO, published 2024).
